Molecular target: HLA-A*24 (human)
Assay: UV-ligand exchange ELISA

Row | peptide exchange yield [%] | Binder
1 | 50 to 75 | YYGPSLFLL [peptide SEQ ID No 200]
2 | 20 to 49 | AYVVFVSTL [peptide SEQ ID No 207]
3 | > 75 | VYQGHTALL [peptide SEQ ID No 277]
4 | 50 to 75 | RYAEEVGIF [peptide SEQ ID No 199]
5 | 50 to 75 | YYKSTSSAF [peptide SEQ ID No 218]
6 | 50 to 75 | HYPPVQVLF [peptide SEQ ID No 285]
7 | > 75 | TYELRYFQI [peptide SEQ ID No 204]
8 | 20 to 49 | PYRLIFEKF [peptide SEQ ID No 281]
9 | 50 to 75 | TFSVSSHLF [peptide SEQ ID No 222]
10 | 50 to 75 | TYKDEGNDYF [peptide SEQ ID No 209]
11 | 50 to 75 | LYITEPKTI [peptide SEQ ID No 287]
12 | 50 to 75 | NYYEVHKELF [peptide SEQ ID No 270]
13 | > 75 | VYWDSAGAAHF [peptide SEQ ID No 202]
14 | 50 to 75 | IYATEAHVF [peptide SEQ ID No 201]
15 | 50 to 75 | QYLGQIQHI [peptide SEQ ID No 268]
16 | 50 to 75 | YFIDSTNLKTHF [peptide SEQ ID No 269]

From patent publication US20170189507A1
